Data as given in patent publication US20240010735A1 (EISAI R AND D MANAGEMENT, published 2024).

Columns and labels:
Test in all cases: ELISA: Fc-His proteins (1 nM) captured on anti-6-His antibody, antibody B 10 µg/mL with human IgG 100 µg/mL, HRP anti-human kappa light chain antibody, OD450 as % of mouse EphA4-Fc-His
[1] = molecular target: T1, mouse EphA3 extracellular region-Fc-His protein (mouse; human, UniProt P29319 21-540)
T1 construct: extracellular domain; not shown: Fc region of human IgG1; histidine tag
T1 sequence (looked up): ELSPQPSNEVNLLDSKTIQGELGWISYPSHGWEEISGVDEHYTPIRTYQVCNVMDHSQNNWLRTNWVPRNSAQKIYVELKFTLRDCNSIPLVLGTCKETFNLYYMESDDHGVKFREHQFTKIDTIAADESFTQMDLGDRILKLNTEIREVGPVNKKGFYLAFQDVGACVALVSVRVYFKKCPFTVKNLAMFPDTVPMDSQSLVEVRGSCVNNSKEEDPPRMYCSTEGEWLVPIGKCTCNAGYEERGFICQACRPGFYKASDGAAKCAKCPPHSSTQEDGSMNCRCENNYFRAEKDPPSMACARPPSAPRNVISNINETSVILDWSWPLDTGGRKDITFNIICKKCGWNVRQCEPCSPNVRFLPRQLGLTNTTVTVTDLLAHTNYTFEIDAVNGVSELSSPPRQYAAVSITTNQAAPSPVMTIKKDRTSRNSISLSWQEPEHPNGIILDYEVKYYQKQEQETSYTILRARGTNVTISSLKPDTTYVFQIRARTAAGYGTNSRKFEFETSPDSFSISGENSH
Method: (§1) Rabbit anti-6-His antibodies (Bethyl Laboratories) were coated onto the wells of a 96-well plate (Nunc). After incubating at 4° C. overnight, the wells were blocked at room temperature for 1 hour by 1% Block Ace (DS Pharma Biomedical). After washing 3 times with 0.05% Tween 20/PBS (Thermo […]), each Eph receptor of mouse extracellular region-Fc-His protein (final concentration 1 nM) was seeded into each well, and incubated at room temperature for 1 hour. After washing 3 times, human IgG solution (100 μg/mL, Sigma) and antibody B (10 μg/mL) were supplemented to the wells, and incubated at room temperature for 1 hour. Horseradish peroxidase-labeled goat anti-human Kappa Light Chain antibody (IBL) was added, and incubated at room temperature for 1 hour. After washing 3 times, TMBZ (3,3′,5,5′-tetramethylbenzidine, Sigma) solution was added to the wells, and upon confirmation of modest coloring, an equal amount of quenching solution (1 N H₂SO₄, Wako Pure Chemicals) was added to the wells, and absorbance at 450 nm was read by a microplate reader (PerkinElmer).

[2] = molecular target: T2, mouse EphB1 extracellular region-Fc-His protein (mouse; human, UniProt Q8CBF3 18-540)
T2 construct: extracellular domain; not shown: Fc region of human IgG1; histidine tag
T2 sequence (looked up): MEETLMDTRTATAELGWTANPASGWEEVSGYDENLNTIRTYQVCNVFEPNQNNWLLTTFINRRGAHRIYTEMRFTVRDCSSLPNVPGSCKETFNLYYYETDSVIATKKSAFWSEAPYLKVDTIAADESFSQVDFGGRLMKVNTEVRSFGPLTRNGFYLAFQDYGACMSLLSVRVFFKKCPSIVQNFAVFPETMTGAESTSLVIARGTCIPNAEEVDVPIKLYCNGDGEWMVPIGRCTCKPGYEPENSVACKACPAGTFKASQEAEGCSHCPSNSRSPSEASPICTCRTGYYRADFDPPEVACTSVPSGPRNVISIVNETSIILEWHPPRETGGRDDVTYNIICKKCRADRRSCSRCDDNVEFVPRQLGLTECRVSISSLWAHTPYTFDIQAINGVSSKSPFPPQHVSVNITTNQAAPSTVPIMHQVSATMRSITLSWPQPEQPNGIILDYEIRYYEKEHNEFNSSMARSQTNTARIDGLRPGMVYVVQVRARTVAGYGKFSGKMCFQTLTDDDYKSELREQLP
Method: as §1

[3] = molecular target: T3, mouse EphA10 extracellular region-Fc-His protein (mouse; human, UniProt Q8BYG9 23-565)
T3 construct: extracellular domain; not shown: Fc region of human IgG1; histidine tag
T3 sequence (looked up): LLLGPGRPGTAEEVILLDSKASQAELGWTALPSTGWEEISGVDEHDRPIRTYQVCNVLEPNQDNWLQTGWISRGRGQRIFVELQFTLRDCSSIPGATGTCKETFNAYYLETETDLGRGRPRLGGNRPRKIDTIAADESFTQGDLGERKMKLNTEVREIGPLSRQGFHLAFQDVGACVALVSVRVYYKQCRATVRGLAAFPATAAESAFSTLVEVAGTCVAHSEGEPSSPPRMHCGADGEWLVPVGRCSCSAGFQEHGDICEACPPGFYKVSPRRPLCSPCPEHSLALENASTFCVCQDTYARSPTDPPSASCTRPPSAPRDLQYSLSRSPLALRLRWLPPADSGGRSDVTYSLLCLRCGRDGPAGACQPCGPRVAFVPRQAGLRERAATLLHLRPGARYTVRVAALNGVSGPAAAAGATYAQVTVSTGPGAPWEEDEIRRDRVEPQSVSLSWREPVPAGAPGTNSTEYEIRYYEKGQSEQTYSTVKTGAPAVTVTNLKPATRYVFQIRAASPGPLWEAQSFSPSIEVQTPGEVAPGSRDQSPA
Method: as §1

Measured: binding result

B1: humanized anti-EphA4 monoclonal antibody (antibody B) (antibody, human IgG2, V domains shown)
VH: QVQLVESGGGVVQPGRSLRLSCAVSGFSLTRFGVHWVRQAPGKGLEWVAVIWRGGSTDYNAAFMSRLTISKDNSKNTVYLQMNSLRAEDTAVYYCAKESLFGVYYDYGYYSMDYWGQGTTVTVSS
VL: DIQMTQSPSSLSASVGDRVTITCRASQEISGYLSWLQQKPGKAPKRLIYAASTLDSGVPSRFSGSRSGTEYTLTISSLQPEDFATYYCLQYASYPLTFGGGTKVEIKR
notes: expressed in Expi293F cells; also called humanized antibody of antibody A; HK2-42 / L1-8
no binding (tested: 10 µg/mL): all assays above
